In patent publication EP4585616A1, “ANTIBODY CAPABLE OF SPECIFICALLY BINDING TO ROR1, […] THEREOF, AND PREPARATION METHOD THEREFOR AND USE THEREOF” (Hefei Institutes of Physical Science, Chinese Academy of …, priority 2022, dated 2024):
Like-named read-outs stand apart in the source and are kept apart here.

B1: mAb001c-vcMMAE (antibody, human IgG1, DAR about 3.81, V domains shown)
VH: EVRLQQSGPVLVKPGASVKMSCKASGYTFTDYNLHWVKQSHRQSLEWIGYINPNHDGTSYNQKFQGKATLTVDRSSSTAYMEFRSLTSEDSAVYYCARRVRTGTGLDDWGQGTTLTVSS
VL: DVLMTQSPLSLPVSLGDQASISCRSSHNIVHTNGNTYLEWYLQKPGQSPKLLIYKVSNRFSGVPDRFSGSGSGTYFTLTISRVEAEDLGVYYCFQGSRFPYTFGGGTKLEIK
modifications: vcMMAE on cysteines after TCEP reduction, positions not given
B2: mAb001c (antibody, V domains shown)
VH: EVRLQQSGPVLVKPGASVKMSCKASGYTFTDYNLHWVKQSHRQSLEWIGYINPNHDGTSYNQKFQGKATLTVDRSSSTAYMEFRSLTSEDSAVYYCARRVRTGTGLDDWGQGTTLTVSS
VL: DVLMTQSPLSLPVSLGDQASISCRSSHNIVHTNGNTYLEWYLQKPGQSPKLLIYKVSNRFSGVPDRFSGSGSGTYFTLTISRVEAEDLGVYYCFQGSRFPYTFGGGTKLEIK
notes: Human-mouse chimeric; also called human-mouse chimeric antibody mAb001c
B3: mAb004c (antibody, V domains shown)
VH: EVQLVESGGGLVQPKGSLKLSCAASGFTFNTYAMHWVRQAPGKGLEWVARIRSKSSNFATYYADSVRDRFTISRDDSQSMLYLQMNNLKTEDTAMYYCVRGYGPSYFSLDYWGQGTSVTVSS
VL: DVVMTQTPLSLPVSLGDQASISCRSSQSLVHSNGNTYLHWYLQKPGQSPKLLIYKVSNRFSGVPDRFSGSGSGTDFTLKINRVEAEDLGVYFCSQSTHAIYTFGGGTKLEIK
notes: Human-mouse chimeric
B4: mAb006c (antibody, V domains shown)
VH: EVQLQQSGPELVKPGASLKMSCKASGYTFPDYNIHWVKQSHGKSLEWIGYINPNNGGTTYNQKFKGKATLTVSKSSSTAYMELRSLTSEDSAVYSCARRGYGSSYAMDYWAQGTSVTVSS
VL: DVLMTQSPLSLPVSLGDQASISCRSSHIIVHTNGNTYLEWYLQKPGQSPKLLIYKVSNRFSGVPDRFSGSGSGTDFTLKISRVEAEDLGVYYCFQGSRVPYTFGGGTKLEIK
notes: Human-mouse chimeric
B5: mAb009c (antibody, V domains shown)
VH: EVQLQQSGPELVKPGASLKLSCKASGYTFPDYNIHWVKQSHGKSLEWIGYINPNNGNTNYNQKFEGKATLTVSKSSSTAYMELRSLTSDDSAVYSCARRGYGSSYAMDFWGQGTSVTVSS
VL: DVLMTQTPLSLPVSLGNQASISCRSSHIIVHTNGNTYLEWYLQKPGQSPKLLIYKVSNRFSGVPDRFSGSGSGTDFTLKISRVEAEDLGVYYCFQGSRVPYTFGGGTKLEIK
notes: Human-mouse chimeric
B6: mAb007c (antibody, V domains shown)
VH: EVQLQQSGPELVKPGASVKMSCKASGYTFTDYNMHWVKQSHGKSLEWIGYINPNNGGTSYNQKFKGKATLTVNKSSSTAYMELRSLTSDDSAVYYCARRGYGSGYAMDYWGQGTSVTVSS
VL: DVLMTQTPLSLPVSLGDQASISCRSSQSIVHTNGNTYLEWYLQNPGQSPKLLIYKVFNRFSGVPDRFSGSGSGTDFTLKISRVEAEDLGVYYCFQGSLFPYTFGGGTKLEIK
notes: Human-mouse chimeric
B7: mAb008c (antibody, V domains shown)
VH: EVQLQQSGPELVKPGASVKMSCKASEYTFTDYNMHWVKQSHGKSLEWIGYINPNNGGTTYNQKFKGKATLTVNKSSSTAYMELRSLTSDDSAVYYCARRGYGSGYAMDYWGQGASVTVSS
VL: DVLLTQTPLSLPVSLGDRASISCTSSQSIVHTNGNTYLEWYLQNPGQSPKLLIYKVSNRFSGVPDRFSGSGSGTDFTLKISRVEAEDLGVYYCFQGSLFPYTFGGGTKLEIK
notes: Human-mouse chimeric
B8: mAb003c (antibody, V domains shown)
VH: EVQLVESGGGLVKPGGSLKLSCAASGFTFSSYAMSWVRQTPEKRLEWVATISDGGSYTYYPDSVKGRFTISRDNAKNNLYLQMSHLKSEDTDMYYCVRGGYYYNLYAMDYWGQGTSVTVSS
VL: DIVLTQSPASLAVSLGQRAIISCKASQSVSFAGTSLMHWYQQKPGQQPKLLIYRASNLEAGVPTRFSGSGSRADFTLNIHPVEEDDAATYYCQQSGEYPWTFGGGTKLEIK
notes: Human-mouse chimeric
B9: mAb005c (antibody, V domains shown)
VH: EVQLVESGGGLVKPGGSLKLSCAASGFTFNSYAMSWVRQTPEKRLEWVATISDGGSYTYYPDNEKGRFTISRDNAKNNLYLQMSHLKSEDTAIYYCVRGGYYYNLYAMDYWGQGTSVTVSS
VL: DIVLTQSPASLAVSLGQRAIISCKASQSVSFPGTSLMHWYQQKPGQQPKLLIYRASNLEAGVPTRFSGSGSRTDFTLNIHPVEEDDTATYYCQQSREYPWTFGGGTQLEIK
notes: Human-mouse chimeric
B10: UC-961 (antibody, V domains shown)
VH: QVQLQESGPGLVKPSQTLSLTCTVSGYAFTAYNIHWVRQAPGQGLEWMGSFDPYDGGSSYNQKFKDRLTISKDTSKNQVVLTMTNMDPVDTATYYCARGWYYFDYWGHGTLVTVSS
VL: DIVMTQTPLSLPVTPGEPASISCRASKSISKYLAWYQQKPGQAPRLLIYSGSTLQSGIPPRFSGSGYGTDFTLTINNIESEDAAYYFCQQHDESPYTFGEGTKVEIK
notes: Control antibody of US20150232569A1, made with human IgG1 heavy chain constant region and Kappa chain constant region

Assays:
[1] = target: T1, human ROR1 on the surface of tumor cells (human, UniProt Q01973 30-937); assay: cell-based or functional assay
[2] = target: T2, Extracellular domain of human ROR1 protein (ROR1-ECD) (human, UniProt Q01973 30-403); assay: ELISA, plate-coated ROR1-ECD
T2 construct: Expressed in HEK293T cells; also called human ROR1-ECD; purified human ROR1 protein extracellular segment

[3] = target: T1, human ROR1 on the surface of tumor cells; assay: FACS, MDA-MB-231 cells
[4] = target: T3, ROR1 extracellular segment sequence (including transmembrane) on CHO cells (human, UniProt Q01973 30-472); assay: FACS, ROR1 transferred onto CHO cell surface (summing up of Example 9)
T3 construct: Cloned into pCDNA3.1 and transfected into CHO cells; also called CHO-ROR1 (extracellular segment); CHO-ROR1

[5] = target: T1, human ROR1 on the surface of tumor cells; assay: FACS, NCI-H226 cells
[6] = target: T4, ROR1 extracellular segment with Kringle domain removed on CHO cells (human, UniProt Q01973 30-472, limits assumed); assay: FACS, CHO-ROR1 (with Kringle domain removed) cells
T4 construct: Transfected into CHO cells; also called CHO-ROR1 (with Kringle domain removed)

[7] = target: T5, ROR1 extracellular segment with Frizzled domain removed on CHO cells (human, UniProt Q01973 30-472, limits assumed); assay: FACS, CHO-ROR1 (with Frizzled domain removed) cells
T5 construct: Transfected into CHO cells; also called CHO-ROR1 (with Frizzled domain removed)

[8] = target: T3, ROR1 extracellular segment sequence …; assay: FACS, CHO-ROR1 (extracellular segment) cells
[9] = target: T6, ROR1 extracellular segment with Ig-like domain removed on CHO cells (human, UniProt Q01973 30-472, limits assumed); assay: FACS, CHO-ROR1 (with Ig-like domain removed) cells
T6 construct: Transfected into CHO cells; also called CHO-ROR1 (with Ig-like domain removed)

[10] = target: T3, ROR1 extracellular segment sequence …; assay: FACS, CHO-ROR1 (extracellular segment) cells; remark: listed apart in the source
[11] = target: T2, Extracellular domain of human ROR1 …; assay: ELISA, plate-coated ROR1-ECD; remark: listed apart in the source
[12] = target: T1, human ROR1 on the surface of tumor cells; assay: FACS, MDA-MB-231 cells; remark: listed apart in the source
[13] = target: T1, human ROR1 on the surface of tumor cells; assay: FACS, NCI-H226 cells; remark: listed apart in the source

T5 sequence (Q01973 other isoform, or with tags, fused parts or gaps limits assumed): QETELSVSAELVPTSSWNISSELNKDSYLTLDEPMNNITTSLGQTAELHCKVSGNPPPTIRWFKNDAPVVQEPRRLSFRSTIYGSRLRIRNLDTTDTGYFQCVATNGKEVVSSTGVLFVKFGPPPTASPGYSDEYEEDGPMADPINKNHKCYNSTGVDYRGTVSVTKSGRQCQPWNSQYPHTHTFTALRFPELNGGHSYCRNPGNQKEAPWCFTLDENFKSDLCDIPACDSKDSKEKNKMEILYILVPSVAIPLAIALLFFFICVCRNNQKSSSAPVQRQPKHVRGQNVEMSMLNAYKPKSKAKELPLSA
T3 sequence (Q01973 30-472 limits assumed): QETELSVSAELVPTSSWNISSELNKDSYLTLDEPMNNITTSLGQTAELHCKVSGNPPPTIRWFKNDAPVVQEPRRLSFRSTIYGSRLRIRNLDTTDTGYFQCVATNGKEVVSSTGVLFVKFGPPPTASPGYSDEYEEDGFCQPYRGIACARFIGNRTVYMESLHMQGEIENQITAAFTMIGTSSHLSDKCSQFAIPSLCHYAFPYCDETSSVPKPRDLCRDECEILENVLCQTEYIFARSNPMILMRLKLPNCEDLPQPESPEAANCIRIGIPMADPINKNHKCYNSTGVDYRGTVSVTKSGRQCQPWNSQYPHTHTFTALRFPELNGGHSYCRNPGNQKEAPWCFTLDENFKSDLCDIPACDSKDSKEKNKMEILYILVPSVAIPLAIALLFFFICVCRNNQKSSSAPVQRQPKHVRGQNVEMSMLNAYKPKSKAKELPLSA
T2 sequence (Q01973 other isoform, or with tags, fused parts or gaps): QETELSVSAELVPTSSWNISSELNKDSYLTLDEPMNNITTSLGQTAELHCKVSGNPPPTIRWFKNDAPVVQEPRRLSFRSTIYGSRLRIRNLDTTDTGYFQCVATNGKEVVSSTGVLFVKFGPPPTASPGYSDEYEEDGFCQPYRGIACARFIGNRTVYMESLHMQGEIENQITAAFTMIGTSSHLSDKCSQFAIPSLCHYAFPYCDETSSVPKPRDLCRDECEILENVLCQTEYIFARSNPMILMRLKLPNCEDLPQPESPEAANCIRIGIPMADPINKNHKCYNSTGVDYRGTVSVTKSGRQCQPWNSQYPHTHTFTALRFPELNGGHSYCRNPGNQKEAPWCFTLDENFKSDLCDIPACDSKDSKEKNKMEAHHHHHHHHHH
T4 sequence (Q01973 other isoform, or with tags, fused parts or gaps limits assumed): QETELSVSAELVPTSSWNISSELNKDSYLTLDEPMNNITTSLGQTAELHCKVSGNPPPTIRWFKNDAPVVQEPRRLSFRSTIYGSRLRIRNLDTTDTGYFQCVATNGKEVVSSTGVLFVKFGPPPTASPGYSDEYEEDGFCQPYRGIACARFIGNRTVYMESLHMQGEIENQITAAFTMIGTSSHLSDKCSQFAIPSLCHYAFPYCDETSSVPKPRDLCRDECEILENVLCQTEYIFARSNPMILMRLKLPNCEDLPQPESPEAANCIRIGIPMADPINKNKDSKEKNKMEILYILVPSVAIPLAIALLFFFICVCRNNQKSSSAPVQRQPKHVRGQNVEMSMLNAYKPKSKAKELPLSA
T1 sequence (Q01973 30-937): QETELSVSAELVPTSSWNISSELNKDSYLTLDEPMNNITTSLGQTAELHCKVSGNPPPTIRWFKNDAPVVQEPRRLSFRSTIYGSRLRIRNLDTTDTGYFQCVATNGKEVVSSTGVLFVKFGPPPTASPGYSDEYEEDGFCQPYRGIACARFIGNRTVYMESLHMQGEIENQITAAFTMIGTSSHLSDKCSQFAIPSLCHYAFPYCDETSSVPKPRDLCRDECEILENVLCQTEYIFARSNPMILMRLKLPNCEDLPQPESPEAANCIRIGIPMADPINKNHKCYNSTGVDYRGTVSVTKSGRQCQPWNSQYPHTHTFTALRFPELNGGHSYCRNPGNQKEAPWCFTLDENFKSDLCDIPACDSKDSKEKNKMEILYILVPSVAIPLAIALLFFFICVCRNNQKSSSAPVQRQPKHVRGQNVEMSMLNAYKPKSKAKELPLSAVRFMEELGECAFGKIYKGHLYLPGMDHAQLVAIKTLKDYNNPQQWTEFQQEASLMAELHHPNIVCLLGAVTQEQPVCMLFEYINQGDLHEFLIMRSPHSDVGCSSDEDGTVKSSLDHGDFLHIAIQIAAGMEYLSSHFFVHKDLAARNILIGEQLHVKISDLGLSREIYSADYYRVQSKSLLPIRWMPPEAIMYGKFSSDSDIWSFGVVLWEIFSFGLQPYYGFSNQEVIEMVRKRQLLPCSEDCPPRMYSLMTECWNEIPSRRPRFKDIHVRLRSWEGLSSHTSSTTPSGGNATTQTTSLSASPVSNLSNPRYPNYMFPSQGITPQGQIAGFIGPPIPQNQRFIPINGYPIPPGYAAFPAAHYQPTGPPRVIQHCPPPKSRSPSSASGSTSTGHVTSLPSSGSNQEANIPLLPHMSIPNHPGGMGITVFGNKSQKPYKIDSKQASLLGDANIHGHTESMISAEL
T6 sequence (Q01973 other isoform, or with tags, fused parts or gaps limits assumed): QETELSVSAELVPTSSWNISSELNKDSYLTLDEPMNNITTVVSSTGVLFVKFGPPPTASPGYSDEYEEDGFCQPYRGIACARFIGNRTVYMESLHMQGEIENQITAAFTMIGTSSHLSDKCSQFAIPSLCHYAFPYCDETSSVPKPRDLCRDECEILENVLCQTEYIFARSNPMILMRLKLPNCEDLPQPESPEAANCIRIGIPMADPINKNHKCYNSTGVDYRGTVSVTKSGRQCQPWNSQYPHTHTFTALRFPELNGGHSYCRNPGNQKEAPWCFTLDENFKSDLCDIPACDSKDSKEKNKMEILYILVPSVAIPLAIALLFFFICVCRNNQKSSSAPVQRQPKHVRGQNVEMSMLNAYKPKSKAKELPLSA

Binder	in vitro anti-proliferative activity IC50, HCC827 cells (CCK8) [1] [nM]	in vitro anti-proliferative activity IC50, HCC1187 cells (CCK8) [1] [nM]	in vitro anti-proliferative activity IC50, HT-29 cells (CCK8) [1] [nM]	in vitro anti-proliferative activity IC50, MCF-7 cells (CCK8) [1] [nM]	in vitro anti-proliferative activity IC50, MDA-MB-231 cells (CCK8) [1] [nM]	in vitro anti-proliferative activity IC50, NCI-H446 cells (CCK8) [1] [nM]	in vitro anti-proliferative activity IC50, NCI-N87 cells (CCK8) [1] [nM]	EC50 [2] [nM]	EC50 [3] [nM]	EC50 [4] [nM]	EC50 [5] [nM]	EC50 [6] [nM]	EC50 [7] [nM]	EC50 [8] [nM]	EC50 [9] [nM]	EC50 [10] [nM]	EC50 [11] [nM]	EC50 [12] [nM]	EC50 [13] [nM]
B1	< 10	< 10	< 10	> 100	< 10	< 10	< 10	–	–	–	–	–	–	–	–	–	–	–	–
B2	–	–	–	–	–	–	–	0.012	0.15	< 2	0.11	0.38	0.85	0.32	0.36	–	–	–	–
B3	–	–	–	–	–	–	–	0.012	0.4	< 2	0.46	0.84	1.37	0.32	0.35	–	–	–	–
B4	–	–	–	–	–	–	–	–	–	< 2	–	1.59	1.64	–	0.37	0.71	0.009	0.4	0.28
B5	–	–	–	–	–	–	–	–	–	< 2	–	1.62	1.68	–	0.45	0.79	0.017	0.33	0.25
B6	–	–	–	–	–	–	–	–	–	< 2	–	1.03	1.25	–	0.36	0.54	0.012	0.25	0.28
B7	–	–	–	–	–	–	–	–	–	< 2	–	1.5	1.67	–	0.37	0.7	0.02	0.78	0.36
B8	–	–	–	–	–	–	–	–	–	< 2	–	1.74	1.78	–	–	1.47	0.013	1.1	0.76
B9	–	–	–	–	–	–	–	0.009	0.24	< 2	0.18	0.91	1.02	0.57	–	–	–	–	–
B10	–	–	–	–	–	–	–	0.013	0.21	–	0.13	0.79	1.11	0.74	–	–	–	–	–
